From publication PMC10397247
Values belong to the binder of their own block, whether it stands above or below them.

How the values were obtained:
4H3974-AA = target: T1, 4H3974-AA; experiment: two-hybrid library CCmax; conditions: mean of both orientations;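 also: natural log of median RNA to DNA barcode read ratio; higher means stronger binding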
T1 chain: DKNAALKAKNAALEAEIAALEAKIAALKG

4H324-AA = target: T2, 4H324-AA; experiment: two-hybrid library CCmax; conditions: mean of both orientations;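 also: natural log of median RNA to DNA barcode read ratio; higher means stronger binding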
T2 chain: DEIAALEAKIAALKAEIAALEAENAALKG

4H2760-AA = target: T3, 4H2760-AA; experiment: two-hybrid library CCmax; conditions: mean of both orientations;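 also: natural log of median RNA to DNA barcode read ratio; higher means stronger binding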
T3 chain: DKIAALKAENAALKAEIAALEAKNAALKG

4H2947-AA = target: T4, 4H2947-AA; experiment: two-hybrid library CCmax; conditions: mean of both orientations;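 also: natural log of median RNA to DNA barcode read ratio; higher means stronger binding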
T4 chain: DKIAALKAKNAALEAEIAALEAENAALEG

4H1593-AA = target: T5, 4H1593-AA; experiment: two-hybrid library CCmax;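 also: natural log of median RNA to DNA barcode read ratio; higher means stronger binding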
T5 chain: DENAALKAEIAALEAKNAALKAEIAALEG

4H63-AA = target: T6, 4H63-AA; experiment: two-hybrid library CCmax; conditions: mean of both orientations;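 also: natural log of median RNA to DNA barcode read ratio; higher means stronger binding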
T6 chain: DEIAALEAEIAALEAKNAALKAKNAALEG

4H2903-AA = target: T7, 4H2903-AA; experiment: two-hybrid library CCmax; conditions: mean of both orientations
T7 chain: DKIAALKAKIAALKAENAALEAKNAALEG

4H3619-AA = target: T8, 4H3619-AA; experiment: two-hybrid library CCmax; conditions: mean of both orientations
T8 chain: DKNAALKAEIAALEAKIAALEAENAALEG

4H235-AA = target: T9, 4H235-AA; experiment: two-hybrid library CCmax; conditions: mean of both orientations
T9 chain: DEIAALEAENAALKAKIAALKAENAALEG

4H446-AA = target: T10, 4H446-AA; experiment: two-hybrid library CCmax; conditions: mean of both orientations
T10 chain: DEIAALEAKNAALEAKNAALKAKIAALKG

4H2604-AA = target: T11, 4H2604-AA; experiment: two-hybrid library CCmax; conditions: mean of both orientations
T11 chain: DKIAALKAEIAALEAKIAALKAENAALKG

4H341-AA = target: T12, 4H341-AA; experiment: two-hybrid library CCmax; conditions: mean of both orientations
T12 chain: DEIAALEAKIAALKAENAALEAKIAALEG

4H3094-AA = target: T13, 4H3094-AA; experiment: two-hybrid library CCmax; conditions: mean of both orientations
T13 chain: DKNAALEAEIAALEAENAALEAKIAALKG

4H3449-AA = target: T14, 4H3449-AA; experiment: two-hybrid library CCmax; conditions: mean of both orientations
T14 chain: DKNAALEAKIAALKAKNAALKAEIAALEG

4H1878-AA = target: T15, 4H1878-AA; experiment: two-hybrid library CCmax; conditions: mean of both orientations
T15 chain: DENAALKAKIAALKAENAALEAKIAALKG

4H3915-AA = target: T16, 4H3915-AA; experiment: two-hybrid library CCmax; conditions: mean of both orientations
T16 chain: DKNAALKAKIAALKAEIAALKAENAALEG

4H2580-AA = target: T17, 4H2580-AA; experiment: two-hybrid library CCmax; conditions: mean of both orientations
T17 chain: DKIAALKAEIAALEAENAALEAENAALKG

4H249-AA = target: T18, 4H249-AA; experiment: two-hybrid library CCmax; conditions: mean of both orientations
T18 chain: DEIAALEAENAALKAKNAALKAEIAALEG

4H3777-AA = target: T19, 4H3777-AA; experiment: two-hybrid library CCmax; conditions: mean of both orientations
T19 chain: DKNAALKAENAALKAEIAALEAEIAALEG

4H2961-AA = target: T20, 4H2961-AA; experiment: two-hybrid library CCmax; conditions: mean of both orientations
T20 chain: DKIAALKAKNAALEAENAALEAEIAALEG

4H2621-AA = target: T21, 4H2621-AA; experiment: two-hybrid library CCmax; conditions: mean of both orientations
T21 chain: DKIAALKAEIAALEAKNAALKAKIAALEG

4H3049-AA = target: T22, 4H3049-AA; experiment: two-hybrid library CCmax; conditions: mean of both orientations
T22 chain: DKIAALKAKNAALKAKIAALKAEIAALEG

4H3629-AA = target: T23, 4H3629-AA; experiment: two-hybrid library CCmax; conditions: mean of both orientations
T23 chain: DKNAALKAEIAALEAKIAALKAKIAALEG

4H2774-AA = target: T24, 4H2774-AA; experiment: two-hybrid library CCmax; conditions: mean of both orientations
T24 chain: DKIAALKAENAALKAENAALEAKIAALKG

4H380-AA = target: T25, 4H380-AA; experiment: two-hybrid library CCmax; conditions: mean of both orientations
T25 chain: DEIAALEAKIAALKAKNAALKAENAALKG

4H432-AA = target: T26, 4H432-AA; experiment: two-hybrid library CCmax; conditions: mean of both orientations
T26 chain: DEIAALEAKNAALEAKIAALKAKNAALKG

4H235-bN = target: T27, 4H235-bN; experiment: two-hybrid library CCNG1
T27 chain: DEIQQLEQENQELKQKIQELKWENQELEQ

4H3497-bN = target: T28, 4H3497-bN; experiment: two-hybrid library CCNG1
T28 chain: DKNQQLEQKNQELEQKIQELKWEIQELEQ

4H584-bN = target: T29, 4H584-bN; experiment: two-hybrid library CCNG1
T29 chain: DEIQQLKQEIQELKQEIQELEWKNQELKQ

4H1985-bN = target: T30, 4H1985-bN; experiment: two-hybrid library CCNG1
T30 chain: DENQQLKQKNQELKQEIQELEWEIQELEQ

4H3631-bN = target: T31, 4H3631-bN; experiment: two-hybrid library CCNG1
T31 chain: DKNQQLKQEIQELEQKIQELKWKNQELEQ

4H3129-bN = target: T32, 4H3129-bN; experiment: two-hybrid library CCNG1
T32 chain: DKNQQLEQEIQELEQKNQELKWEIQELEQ

4H3628-bN = target: T33, 4H3628-bN; experiment: two-hybrid library CCNG1
T33 chain: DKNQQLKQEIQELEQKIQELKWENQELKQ

4H619-bN = target: T34, 4H619-bN; experiment: two-hybrid library CCNG1
T34 chain: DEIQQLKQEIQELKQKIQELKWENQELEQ

4H3858-bN = target: T35, 4H3858-bN; experiment: two-hybrid library CCNG1
T35 chain: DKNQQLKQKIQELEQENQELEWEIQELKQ

4H591-bN = target: T36, 4H591-bN; experiment: two-hybrid library CCNG1
T36 chain: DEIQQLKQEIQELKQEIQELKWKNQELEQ

P3bH1 = target: T37, P3bH1; experiment: two-hybrid library CCNG1
T37 chain: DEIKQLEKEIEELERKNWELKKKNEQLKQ

4H3638-bN = target: T38, 4H3638-bN; experiment: two-hybrid library CCNG1
T38 chain: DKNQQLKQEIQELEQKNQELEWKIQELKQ

4H3613-bN = target: T39, 4H3613-bN; experiment: two-hybrid library CCNG1
T39 chain: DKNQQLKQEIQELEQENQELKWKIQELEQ

4H3298-bN = target: T40, 4H3298-bN; experiment: two-hybrid library CCNG1
T40 chain: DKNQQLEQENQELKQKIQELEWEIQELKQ

4H3926-bA = target: T41, 4H3926-bA; experiment: two-hybrid library CCNG1
T41 chain: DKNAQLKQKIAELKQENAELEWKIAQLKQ

4H626-bN = target: T42, 4H626-bN; experiment: two-hybrid library CCNG1
T42 chain: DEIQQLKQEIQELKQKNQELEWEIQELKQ

4H3175-bN = target: T43, 4H3175-bN; experiment: two-hybrid library CCNG1
T43 chain: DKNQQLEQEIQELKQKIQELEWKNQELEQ

4H3974-bN = target: T44, 4H3974-bN; experiment: two-hybrid library CCNG1
T44 chain: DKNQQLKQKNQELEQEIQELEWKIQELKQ

4H1899-bN = target: T45, 4H1899-bN; experiment: two-hybrid library CCNG1
T45 chain: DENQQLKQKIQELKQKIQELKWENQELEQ

4H3414-bN = target: T46, 4H3414-bN; experiment: two-hybrid library CCNG1
T46 chain: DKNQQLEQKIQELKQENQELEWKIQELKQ

4H1804-bN = target: T47, 4H1804-bN; experiment: two-hybrid library CCNG1
T47 chain: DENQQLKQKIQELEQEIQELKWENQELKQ

4H3926-bN = target: T48, 4H3926-bN; experiment: two-hybrid library CCNG1
T48 chain: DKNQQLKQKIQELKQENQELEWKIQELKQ

4H906-bN = target: T49, 4H906-bN; experiment: two-hybrid library CCNG1
T49 chain: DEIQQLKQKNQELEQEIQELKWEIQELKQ

4H3462-bN = target: T50, 4H3462-bN; experiment: two-hybrid library CCNG1
T50 chain: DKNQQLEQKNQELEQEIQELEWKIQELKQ

4H1710-bN = target: T51, 4H1710-bN; experiment: two-hybrid library CCNG1
T51 chain: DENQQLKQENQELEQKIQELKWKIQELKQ

4H3277-bN = target: T52, 4H3277-bN; experiment: two-hybrid library CCNG1
T52 chain: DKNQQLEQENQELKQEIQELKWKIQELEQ

4H3172-bN = target: T53, 4H3172-bN; experiment: two-hybrid library CCNG1
T53 chain: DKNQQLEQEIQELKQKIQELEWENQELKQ

4H850-bN = target: T54, 4H850-bN; experiment: two-hybrid library CCNG1
T54 chain: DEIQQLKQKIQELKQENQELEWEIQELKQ

4H3817-bN = target: T55, 4H3817-bN; experiment: two-hybrid library CCNG1
T55 chain: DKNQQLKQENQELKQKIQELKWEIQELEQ

4H3162-bN = target: T56, 4H3162-bN; experiment: two-hybrid library CCNG1
T56 chain: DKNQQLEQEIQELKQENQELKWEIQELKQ

4H570-bN = target: T57, 4H570-bN; experiment: two-hybrid library CCNG1
T57 chain: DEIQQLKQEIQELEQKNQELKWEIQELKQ

interaction score (4H3974-AA): -1.15
interaction score (4H324-AA): -1.58
interaction score (4H2760-AA): -0.517
interaction score (4H2947-AA): -1.37
interaction score (4H1593-AA): -1.04
interaction score (4H63-AA): -1.97
interaction score (4H2903-AA): -0.456
interaction score (4H3619-AA): -1.38
interaction score (4H235-AA): 0.603
interaction score (4H446-AA): -1.84
interaction score (4H2604-AA): 0.383
interaction score (4H341-AA): 2.13
interaction score (4H3094-AA): 1.88
interaction score (4H3449-AA): -1.62
interaction score (4H1878-AA): 2.3
interaction score (4H3915-AA): -1.62
interaction score (4H2580-AA): -0.97
interaction score (4H249-AA): -1.77
interaction score (4H3777-AA): -1.54
interaction score (4H2961-AA): -1.89
interaction score (4H2621-AA): -0.899
interaction score (4H3049-AA): -0.661
interaction score (4H3629-AA): -0.594
interaction score (4H2774-AA): -0.0172
interaction score (4H380-AA): -1.5
interaction score (4H432-AA): -0.391
Binder: DENAALKAEIAALEAKNAALKAEIAALEG [4H1593-AA]

interaction score (4H235-bN): -2.91
interaction score (4H3497-bN): 0.701
interaction score (4H584-bN): 0.273
interaction score (4H1985-bN): 1.36
interaction score (4H3631-bN): 0.993
interaction score (4H3129-bN): -0.785
interaction score (4H3628-bN): 1.45
interaction score (4H619-bN): 0.707
interaction score (4H3858-bN): -0.718
interaction score (4H591-bN): -0.724
interaction score (P3bH1): -2.08
interaction score (4H3638-bN): -0.0052
interaction score (4H3613-bN): -0.41
interaction score (4H3298-bN): 0.498
interaction score (4H3926-bA): -0.849
interaction score (4H626-bN): 0.722
interaction score (4H3175-bN): -0.28
interaction score (4H3974-bN): 0.85
interaction score (4H1899-bN): 0.0366
interaction score (4H3414-bN): -0.297
interaction score (4H1804-bN): -0.254
interaction score (4H3926-bN): -0.569
interaction score (4H906-bN): 0.452
interaction score (4H3462-bN): -0.312
interaction score (4H1710-bN): 0.191
interaction score (4H3277-bN): 0.0226
interaction score (4H3172-bN): -0.194
interaction score (4H850-bN): 0.177
interaction score (4H3817-bN): 1.23
interaction score (4H3162-bN): 0.233
interaction score (4H570-bN): 0.578
Binder: DENQQLKQENQELEQKIQELKWKIQELKQ [4H1710-bN]
